Source: US11433139B2, “Peptide vaccines against interleukin-31” (Zoetis Services LLC, priority 2018, dated 2022)

How the values were obtained:
feline IL-31 = assay: Inhibition of feline IL-31 induced pSTAT3 signaling in feline FCWF4 macrophage-like cells; type: cell-based; conditions: 0.2 μg/mL feline IL-31, pSTAT3, FCWF4 cells (FIG. 3)
How it was run: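 DH-82 cells primed with canine IFN-γ 10 ng/mL for 24 h, FCWF4 with feline IFN-γ 125 ng/mL for 96 h, then serum-starved 2 h. mAb pre-incubated 1 h with 1 μg/mL canine or 0.2 μg/mL feline IL-31, cells stimulated 5 min; pSTAT3 by AlphaLISA SureFire, IC50 as half-maximal signalling reduction.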

wildtype feline IL-31 = assay: Biacore binding, single test concentration of antibody, feline IL-31 surface
Chain of wildtype feline IL-31 (as listed by the source): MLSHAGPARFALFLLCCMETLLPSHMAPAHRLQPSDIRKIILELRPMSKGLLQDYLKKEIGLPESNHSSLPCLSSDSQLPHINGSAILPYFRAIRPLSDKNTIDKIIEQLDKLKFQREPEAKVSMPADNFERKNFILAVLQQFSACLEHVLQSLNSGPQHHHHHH
Protocol: For the indirect ELISA, binding (ELISA OD) to wildtype feline IL-31 and a feline IL-31 15H05 mutant which had mutations in the monoclonal antibody 15H05 epitope region was assessed. To confirm binding, biacore analysis was performed using canine, feline, equine, human, the feline 15H05 mutant, and feline 11E12 mutant IL-31 proteins as surfaces and a single test concentration of antibody. The feline IL-31 11E12 mutant had mutations in the monoclonal antibody 11E12 epitope region.
For the indirect ELISA method, antibody binding to wildtype and feline IL-31 15H05 mutant proteins was assessed. […] In comparison, the 11E12 antibody bound to the wild-type feline IL-31 and its binding was not impacted by the mutations in the 15H05 epitope region as evidenced by the data in FIG. 4. To confirm binding, biacore analysis was performed using canine, feline, equine, human, feline 15H05 mutant, and feline 11E12 mutant IL-31 proteins as surfaces and a single test concentration of antibody. Similar to ELISA observations, all antibodies tested bound to wildtype feline IL-31. In agreement with the data described above in this section, mouse antibodies 11 E12 and 15H05 both bound to canine and feline IL-31 surfaces. […] From this group of nine fully canine antibodies, only ZIL1 and ZIL9 cross-reacted with equine IL-31. […]

B1: 15H05: mouse anti IL-31 monoclonal antibody, VH SEQ ID NO: 67, VL SEQ ID NO: 69 (antibody, listed as Mus musculus, V domains shown)
VH: QVQLQQSAAELARPGASVKMSCKTSGYTFTSYTIHWIKQRPGQGLEWIGNINPTSGYTENNQRFKDKTTLTVDRSSNTAYLQLHSLTSEDSAVYFCARWGFKYDGEWSFDVWGAGTTVTVSS
VL: DIQMNQSPSSLSASLGDTITVTCRASQGISIWLSWYQQKPGNIPKVLINKASNLHIGVPPRFSGSGSGTHFTLTITSLQPEDIATYYCLQSQTYPLTFGGGTKLEIN
Feline IL-31
  potency (IC50) against feline IL-31 in feline FCWF4 cells: slight increase in IC50
Wildtype feline IL-31
  binding to wildtype feline IL-31 (Biacore): bound
